Target: human Fas antigen on HPB-ALL cells (human) (UniProt P25445)
Experiment: cell-based or functional assay

Sequence of UniProt P25445 (P25445 26-335): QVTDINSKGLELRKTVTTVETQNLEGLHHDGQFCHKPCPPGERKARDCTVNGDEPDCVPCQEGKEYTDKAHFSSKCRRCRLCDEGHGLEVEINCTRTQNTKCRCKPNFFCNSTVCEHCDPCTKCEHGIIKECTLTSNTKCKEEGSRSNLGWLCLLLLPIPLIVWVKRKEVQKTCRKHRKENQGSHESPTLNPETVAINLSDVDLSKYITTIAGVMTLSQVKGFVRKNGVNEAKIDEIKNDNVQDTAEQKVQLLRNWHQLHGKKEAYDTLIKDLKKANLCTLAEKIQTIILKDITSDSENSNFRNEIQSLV

Substance: mouse anti-human Fas monoclonal antibody CH11
- ED50 (ng/ml), cytotoxic activity on HPB-ALL cells: 10.7 ng/mL
